By Km is commonly meant the concentration of substrate that gives half-maximal velocity. Usually Vmax stands for the rate approached at saturating substrate. The term kcat denotes the number of substrate molecules converted per active site and unit of time at saturation. The kcat/Km is the second-order rate constant that governs catalysis at low substrate concentration.

5 substances from publication PMC6699081, “Development and application of a transcriptional sensor for detection of heterologous acrylic acid production in E. coli” (Microbial Cell Factories, 2019) can be followed below.

Data set [1] relates to T1, C=CC(N)=O.
T1 construct: C-terminal 6xHis tag, expressed in E. coli BL21(DE3), His-GraviTrap purified; catalytic triad E59, K134, C166
Briefly: purified protein. In kind it is biochemical, Bacillus sp. (in: firmicutes). The following applies: 20 mM potassium phosphate pH 7.2, 150 mM NaCl, 2 mM DTT, 37 °C, 15 nM enzyme, 20 min.

In data set [2] the test system is C=CC(N)=O. Briefly: purified protein. The following applies: 20 mM potassium phosphate pH 7.2, 150 mM NaCl, 2 mM DTT, 37 °C, 15 nM enzyme, 20 min.

Consider “RAPc8 amidase (Bacillus sp. (in: firmicutes))”, for which, in the data set with C=CC(N)=O [1], the Km was 7.3 ± 0.1 mM, the Vmax came to 106 µM/min, the turnover number (kcat) is 118 ± 6.75 s⁻¹ and the kcat/Km was determined as 16300 ± 1060 M⁻¹ s⁻¹.

For “RAPc8 amidase (Bacillus sp. (in: firmicutes); A77T)”, in the data set with C=CC(N)=O [2], the Michaelis-Menten constant (Km) is on record as 4.5 ± 0.2 mM, the Vmax was determined as 66.7 µM/min, the kcat stood at 74.1 ± 2.32 s⁻¹ and the kcat/Km was 16600 ± 357 M⁻¹ s⁻¹.

As to “RAPc8 amidase (Bacillus sp. (in: firmicutes); A77T/D294N/K342E/M203V/M45L)”, in the data set with C=CC(N)=O [2], the Km stood at 7.4 ± 1.3 mM, the Vmax amounted to 176 µM/min, the turnover number (kcat) was determined as 196 ± 17.9 s⁻¹ and the kcat/Km was found to be 26800 ± 2390 M⁻¹ s⁻¹.

With “RAPc8 amidase (Bacillus sp. (in: firmicutes); A77T/M203V)”, in the data set with C=CC(N)=O [2], the Michaelis-Menten constant (Km) worked out at 4.6 ± 0.4 mM, the Vmax came out at 64.7 µM/min, the catalytic constant (kcat) is 71.9 ± 5.14 s⁻¹ and the kcat/Km came to 15600 ± 598 M⁻¹ s⁻¹.

Regarding “RAPc8 amidase (Bacillus sp. (in: firmicutes); M203V)”, in the data set with C=CC(N)=O [2], the Michaelis-Menten constant (Km) is listed as 7.2 ± 1.1 mM, the Vmax turned out to be 147 µM/min, the kcat worked out at 163 ± 18.6 s⁻¹ and the kcat/Km came out at 22900 ± 1170 M⁻¹ s⁻¹.
